Reference: US20050260693A1 (MOUNT SINAI SCHOOL OF MEDICINE, published 2005)
Where no end group is shown, it is not given here. [ ]: non-standard residue; d: D form. pS = N[C@@H](COP(=O)(O)O)C(=O)O

T1: GST-322 fusion protein
T1 sequence: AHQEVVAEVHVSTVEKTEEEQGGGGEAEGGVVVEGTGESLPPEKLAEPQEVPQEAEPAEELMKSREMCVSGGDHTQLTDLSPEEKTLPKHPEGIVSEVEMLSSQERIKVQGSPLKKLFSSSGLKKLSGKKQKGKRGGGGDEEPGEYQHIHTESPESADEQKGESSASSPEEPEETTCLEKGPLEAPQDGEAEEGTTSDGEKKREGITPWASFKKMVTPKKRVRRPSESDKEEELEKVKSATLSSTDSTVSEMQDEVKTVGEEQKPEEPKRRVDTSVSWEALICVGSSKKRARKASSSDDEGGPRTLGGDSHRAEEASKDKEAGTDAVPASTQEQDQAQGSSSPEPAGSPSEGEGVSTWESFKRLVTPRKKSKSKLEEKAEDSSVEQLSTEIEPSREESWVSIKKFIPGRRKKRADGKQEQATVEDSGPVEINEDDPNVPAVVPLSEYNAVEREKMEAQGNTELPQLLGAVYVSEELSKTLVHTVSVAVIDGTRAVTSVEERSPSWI

T2: GST-322 prephosphorylated by PKC
T2 sequence: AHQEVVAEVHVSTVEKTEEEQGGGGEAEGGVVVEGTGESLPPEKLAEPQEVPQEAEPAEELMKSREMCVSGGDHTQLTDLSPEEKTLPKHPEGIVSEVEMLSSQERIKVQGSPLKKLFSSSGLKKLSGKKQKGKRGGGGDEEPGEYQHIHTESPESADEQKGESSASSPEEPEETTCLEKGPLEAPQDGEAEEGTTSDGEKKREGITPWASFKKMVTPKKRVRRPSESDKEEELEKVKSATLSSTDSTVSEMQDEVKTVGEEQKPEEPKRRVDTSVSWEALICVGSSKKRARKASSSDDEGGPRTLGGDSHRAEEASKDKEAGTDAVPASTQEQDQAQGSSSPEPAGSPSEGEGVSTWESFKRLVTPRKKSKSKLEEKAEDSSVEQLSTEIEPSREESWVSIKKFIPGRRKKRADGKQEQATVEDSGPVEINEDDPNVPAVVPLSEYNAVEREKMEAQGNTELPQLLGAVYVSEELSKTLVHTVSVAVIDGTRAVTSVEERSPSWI


Columns and labels:
GST-322 fusion protein = tested on: T1, GST-322 fusion protein
[1] = tested on: T2, GST-322 prephosphorylated by PKC; assay: GST pull-down of PKC with phosphatidylserine; against the unphosphorylated fusion protein
[2] = target: cyclin D1 (endogenous and ectopic) of S24, S24/D1, S24/V and V3 cells (UniProt P25322); assay: GST pull-down with mutated GST-SSeCKS2
Chain of cyclin D1 (endogenous and ectopic) of S24, S24/D1, S24/V and V3 cells (UniProt P25322) (P25322 whole entry): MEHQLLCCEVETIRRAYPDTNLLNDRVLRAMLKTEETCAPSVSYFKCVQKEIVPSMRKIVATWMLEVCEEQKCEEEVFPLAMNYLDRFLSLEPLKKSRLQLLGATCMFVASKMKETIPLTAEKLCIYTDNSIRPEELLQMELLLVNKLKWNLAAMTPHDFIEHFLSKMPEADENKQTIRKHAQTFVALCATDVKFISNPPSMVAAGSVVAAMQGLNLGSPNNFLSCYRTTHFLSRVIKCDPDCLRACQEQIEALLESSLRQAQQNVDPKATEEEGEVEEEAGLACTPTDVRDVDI

[3] = target: T3, cyclin D1 (endogenous and ectopic) of S24, S24/D1, S24/V and V3 cells (UniProt P25322 1-295); assay: cell-based or functional assay
T3 sequence (P25322 whole entry): as above

[4] = target: T3, cyclin D1 (endogenous and ectopic) of …; assay: cell-based or functional assay; remark: listed apart in the source

Molecule	reduction of cyclin D1 binding against wild-type GST-SSeCKS2 [2] [%]	% of cells showing nuclear staining of cyclin D1, S24/D1, -TET, peptide 100 µg/ml for 4 h [4] [%]	further results
purified rabbit brain PKC			in vitro phosphorylation by PKC ([32P]ATP, SDS-PAGE and autoradiography) (GST-322 fusion protein): purified rat brain PKC containing α, β, and δ isoforms could phosphorylate GST-322 protein in vitro; fold decrease of binding after prephosphorylation by PKC [1]: Prephosphorylation of GST-322 by PKC decreases this binding at least 10-fold
GST-SSeCKS2 with upstream KK mutated to SS (protein, not shown: a dimerising Fc or GST) AHQEVVAEVHVSTVEKTEEEQGGGGEAEGGVVVEGTGESLPPEKLAEPQEVPQEAEPAEELMKSREMCVSGGDHTQLTDLSPEEKTLPKHPEGIVSEVEMLSSQERIKVQGSPLSSLFSSSGLKKLSGKKQKGKRGGGGDEEPGEYQHIHTESPESADEQKGES	70		
GST-SSeCKS2 with downstream KK mutated to SS (protein, not shown: a dimerising Fc or GST) AHQEVVAEVHVSTVEKTEEEQGGGGEAEGGVVVEGTGESLPPEKLAEPQEVPQEAEPAEELMKSREMCVSGGDHTQLTDLSPEEKTLPKHPEGIVSEVEMLSSQERIKVQGSPLKKLFSSSGLSSLSGKKQKGKRGGGGDEEPGEYQHIHTESPESADEQKGES	70		

Further lines, with some results ahead:

reduction of cyclin D1 binding against wild-type GST-SSeCKS2 [2] [%]	% of cells showing nuclear staining of cyclin D1, S24/D1, -TET, peptide 100 µg/ml for 4 h [4] [%]	Molecule	further results
	82	RQIKIWFQNRRMKWKKLKKLFSSSGLKKLSGK (also: N-terminal biotin on half of the product) [penetratin-linked wt SSeCKS CY peptide]	increase in cyclin D translocation to nuclei, S24/D1 cells incubated 4 h with peptide [3]: ~2 fold
	30	RQIKIWFQNRRMKWKKLSSSFSSSGLSSSSGK (also: N-terminal biotin on half of the product) [penetratin-linked mutated CY peptide (K→S)]	
	39	RQIKIWFQNRRMKWKKLKKLF[pS]SSGLKKL[pS]GK (also: N-terminal biotin on half of the product) [penetratin-linked phosphoserine CY peptide]	
